Experimental data taken from patent US20160053242A1, “THERMOSTABLE NUCLEASE” (priority 2013, published 2016).

Experiments:
[1] = Active two-dimensional gel electrophoresis (isoelectric point); format: physicochemical; conditions: partially purified crude extracts of CCRI-10035 heated at 80° C. for 1 h; 2D gel
Protocol: Protein concentration was measured by the method of Bradford. An 18 cm Immobiline™ pH 4-7 DryStrip was applied. Proteins (200 μg) were diluted in T8 buffer (7 M Urea, 3% W/V CHAPS; 3-[(3-cholamidopropyl)dimethylammonio]-1-propanesulfonate, 20 mM DTT; dithiothreitol, 5 mM TCEP; tris(2-carboxyethyl)phosphine hydrochloride) and precipitated with 2-D clean-up kit (Amersham Biosciences) to remove substances interfering with isoelectric focusing (IEF) such as detergents, salts, lipids, phenolic and nucleic acids. IEF was carried out using IPTGhor IEF system (Amersham Biosciences) for the first dimension as recommended by the manufacturer. After first dimension, the strip was cut 5 cm from (+) terminal and 7 cm from (−) terminal. The cut strip was linked with agarose onto 12% SDS-PAGE containing 20 μg/ml dsDNA calf thymus DNA (Calbiochem). Markers and proteins were prepared according to the manufacturer's instructions on Whatman paper and run alongside the cut strip. After electrophoresis, the gel was rinsed with water, and placed into the gel incubation buffer (20 mM Tris-HCl, pH 9.08, 20 mM MgCl2). Two hours later, the gel was rinsed again and incubated in the gel incubation buffer overnight at 37° C. […] Trypsin fragmentation results were analyzed using Mascot software (Matrix Science) for peptide identification. […]

calf thymus ssDNA = experiment: Assay of nuclease activity, substrate specificity: ssDNA; conditions: no metal ion added
Protocol: (§1) Standard (20 μl) reaction mixture contained 2 μg of calf thymus dsDNA in activity buffer (20 mM Tris-HCl, 20 mM MgCl2 at pH 7.24). When required, several concentrations of alternative divalent cations, BaCl2, CaCl2, NaCl, MnSO4, NiSO4, MgCl2, CoCl2, KCl, were tested and the effects of other compounds (0.1, 0.25, 0.5 and 1 mg/ml BSA, 0.05, 0.1, 0.5 and 1 mM dNTPs, 2, 5, 10, 20, 50, 100 mM EDTA, 5, 15, 30, 50% glycerol, 0.1, 0.25, 0.5 and 1% SDS, and 1, 2, 3, 4, 5, 6, 7 and 8 M urea) were investigated. […] In all cases, the reaction was started by the addition of 2 μl of nickel column purified enzyme, and terminated by adding 4 μl of agarose gel loading buffer (0.1 M EDTA, pH 8.0, 0.05% bromophenol blue, 50% glycerol). Nuclease activity was evaluated by assessing DNA degradation level on gel electrophoresis (1.2% agarose, with 0.25 μg/ml of ethidium bromide, at 170 V for 30 min, in Tris-borate EDTA buffer).

[2] = test system: plasmid DNA pET-24a(+) (closed circular double stranded); experiment: Assay of nuclease activity, substrate specificity: plasmid DNA; conditions: no metal ion added
Protocol: as §1

calf thymus dsDNA = experiment: Assay of nuclease activity, DNA degradation level on agarose gel
Protocol: as §1

[3] = digestion of calf thymus dsDNA at 37° C.

B1: Nucyep: thermostable non-specific nuclease from Yersinia enterocolitica subsp. palearctica; 283-amino-acid protein, SEQ ID NO. 6 (protein)
chain: MKFNLIKLLPVLLLTACTTTDHSMSAPKTILSAPTVTEQNLPAAAIDNCLVGCPTGGSDQTVIRDVYTLNNNSHTKFANWVAYKVTKSSQASNHPRKWAQDPDLPDSDTLAPADYTGANQKLAVDRGHQAPLSLLAGNEDSQALNYLSNITPQKAALNQGAWVRLEDQERNLANRPDVTAVYSVTGPLFERHIATLPAKPTVEIPSGYWKIIFIGTSPDKGQYAAFLMDQNTAKSANFCDYQVNVDTIEAKTNPQLTIWSNLPADVAQIIKSQKGTLAQTIGCD
modifications: Yersinia enterocolitica sub. paleartica
Isoelectric point of the spot with heat-stable nuclease activity [1]: about 5.2
Nuclease activity on ssDNA without addition of metal ions (calf thymus ssDNA): able to degrade
Nuclease activity on plasmid (circular ds) DNA without addition of metal ions [2]: but not the circular dsDNA or RNA
Effect of 2 mM Ca2+ on nuclease activity (calf thymus dsDNA; 2 mM Ca2+): inhibited
Effect of 2 mM CuSO4 on nuclease activity (calf thymus dsDNA; 2 mM CuSO4): inhibited
Effect of 2 mM ZnCl2 on nuclease activity (calf thymus dsDNA; 2 mM ZnCl2): inhibited
Effect of 0.1% SDS on nuclease activity (calf thymus dsDNA; 0.1% SDS): inhibited
Effect of 100 mM EDTA on nuclease activity (calf thymus dsDNA; EDTA 100 mM): inhibited
Activity left after heating at 80° C. for 60 minutes (1 h) (calf thymus dsDNA; [3]): ~5%
Activity left after heating at 100° C. for 20 minutes (calf thymus dsDNA; [3]): ~5%
Optimum temperature (calf thymus dsDNA; examined within 0 to 100° C.): about 35 °C
Activity after exposure to longer times at 100° C. (calf thymus dsDNA; longer than 20 minutes at 100° C., compared to undigested controls): no remaining nuclease activity
Nuclease activity on dsDNA without addition of metal ions (calf thymus dsDNA; no metal ion added, linear dsDNA): able to degrade
